Measured values reported in patent US20120121576A1 (ACCELERON PHARMA, published 2012).

What was measured:
[1] = biological target: T1, monomeric ActRIIA tagged with histidine (ActRIIA-His) (human, UniProt P27037 20-135); test: SPR (BIACORE)
T1 construct: also called monomeric extracellular domain of ActRIIA tagged with histidine

[2] = biological target: T2, ActRIIA-Fc (ActRIIA-mFc, dimeric protein) (human, UniProt P27037 20-135); test: SPR (BIACORE): Ab-14E1 captured on a CM5 chip by immobilized anti-mFc IgG, ActRIIA-mFc injected at different concentrations, nonlinear regression
Text: (§1) FIG. 9 depicts the kinetics of ActRIIA-Fc binding to Ab-14E1 as determined by BIACORE™-based analysis. A. Ab-14E1 was captured on a chip with covalently immobilized anti-mFC IgG and then exposed to ActRIIA-Fc at different concentrations. […] RU, relative units.

[3] = biological target: ActRIIA expressed by A204 human rhabdomyosarcoma cells (human, UniProt P27037 20-513); test: cell-based or functional assay
[4] = biological target: T2, ActRIIA-Fc (ActRIIA-mFc, dimeric …); test: SPR (BIACORE); Ab-14E1 captured by immobilized anti-mFc IgG, ActRIIA-Fc as analyte
Text: as §1

T2 sequence (P27037 20-135 limits assumed): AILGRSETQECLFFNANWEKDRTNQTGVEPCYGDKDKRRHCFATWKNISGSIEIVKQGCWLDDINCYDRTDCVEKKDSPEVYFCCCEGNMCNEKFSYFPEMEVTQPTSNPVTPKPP
Sequence of ActRIIA expressed by A204 human rhabdomyosarcoma cells (P27037 20-513 limits assumed): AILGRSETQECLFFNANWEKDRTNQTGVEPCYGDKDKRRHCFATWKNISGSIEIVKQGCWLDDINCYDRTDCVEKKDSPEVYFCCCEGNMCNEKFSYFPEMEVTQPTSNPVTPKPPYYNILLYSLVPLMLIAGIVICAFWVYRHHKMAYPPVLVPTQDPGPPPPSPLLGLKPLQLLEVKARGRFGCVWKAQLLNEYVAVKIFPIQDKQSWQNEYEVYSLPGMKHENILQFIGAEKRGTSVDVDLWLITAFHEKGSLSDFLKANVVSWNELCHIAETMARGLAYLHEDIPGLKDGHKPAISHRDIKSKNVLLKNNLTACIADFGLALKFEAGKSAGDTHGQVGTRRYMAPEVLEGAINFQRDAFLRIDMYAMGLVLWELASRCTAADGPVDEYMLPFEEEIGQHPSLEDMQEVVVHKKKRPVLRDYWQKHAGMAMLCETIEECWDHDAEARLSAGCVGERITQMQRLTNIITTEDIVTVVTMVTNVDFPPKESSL
T1 sequence (P27037 other isoform, or with tags, fused parts or gaps limits assumed): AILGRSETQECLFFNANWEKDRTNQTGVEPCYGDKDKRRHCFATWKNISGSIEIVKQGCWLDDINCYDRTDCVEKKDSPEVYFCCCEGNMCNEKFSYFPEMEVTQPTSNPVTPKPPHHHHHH

fold lower affinity than for ActRIIA-mFc [1]: 10 fold | kon [2]: 86000 M⁻¹ s⁻¹ | IC50 of inhibition of activin A-stimulated reporter gene expression (pGL3(CAGA)12 luciferase) in A204 cells [3]: 57.1 ng/ml | Kd [4]: ~0.012 nM | koff [4]: ~1e-06 s⁻¹
B1: Ab-14E1 (antibody 14E1; hybridoma subclone 14E1.H8.H1) (antibody, V domains shown)
VH: DVQLQESGPGLVKPSQSLSLTCSVTGYSITSGYYWNWIRQFPGNKLEWMGYISYDGSNNYNPSLINRISITRDTSKNQFFLKLNSVTTEDTATYFCASYAYRNDVRFAYWGQGTLVTVSA
VL: DIQMTQTTSSLSASLGDRVTISCRASQDISNFLNWYQQKPDGTVKLLIYFTSRLHSGVPSRFSGSGSGTDYSLTITNLEQEDIATYFCQQGNTLPWTFGGGTKLEIK
